Source: article PMC2848186

Molecular target: GST-GCN5
Experiment: pull-down; GST-GCN5 (1 ug) immobilised on glutathione beads, pre-treated with DNase I and RNase H; incubated with 600 c.p.m. of in vitro translated [35S]-IN proteins in 0.2 mg/ml ethidium bromide; SDS-PAGE and phosphoimaging; bound protein as percent of radiolabeled input

Chain of GST-GCN5 (Q92830 2-837): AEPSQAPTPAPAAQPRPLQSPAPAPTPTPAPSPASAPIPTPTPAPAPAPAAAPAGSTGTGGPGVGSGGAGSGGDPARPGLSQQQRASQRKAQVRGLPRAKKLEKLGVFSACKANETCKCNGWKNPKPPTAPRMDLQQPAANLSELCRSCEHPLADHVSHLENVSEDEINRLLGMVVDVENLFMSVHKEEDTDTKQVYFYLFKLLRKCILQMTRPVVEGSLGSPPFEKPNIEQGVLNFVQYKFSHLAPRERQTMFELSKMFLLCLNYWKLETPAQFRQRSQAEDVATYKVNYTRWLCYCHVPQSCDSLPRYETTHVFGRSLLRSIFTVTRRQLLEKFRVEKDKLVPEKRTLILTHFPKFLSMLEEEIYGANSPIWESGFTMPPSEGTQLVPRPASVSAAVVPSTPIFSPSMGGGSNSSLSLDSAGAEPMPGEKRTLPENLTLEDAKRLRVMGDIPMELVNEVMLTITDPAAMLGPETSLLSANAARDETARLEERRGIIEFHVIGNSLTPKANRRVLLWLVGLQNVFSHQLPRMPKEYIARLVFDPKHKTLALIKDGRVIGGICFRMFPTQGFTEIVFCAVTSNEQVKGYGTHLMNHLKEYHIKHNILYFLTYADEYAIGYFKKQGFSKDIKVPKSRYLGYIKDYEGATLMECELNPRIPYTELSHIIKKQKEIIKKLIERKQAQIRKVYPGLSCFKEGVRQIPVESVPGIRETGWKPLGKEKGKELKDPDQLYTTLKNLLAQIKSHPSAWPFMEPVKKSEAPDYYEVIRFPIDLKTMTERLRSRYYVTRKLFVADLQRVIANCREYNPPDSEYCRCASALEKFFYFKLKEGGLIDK

| Substance | binding efficiency (percent of radiolabeled input bound) |
| --- | --- |
| 35S-IN fragment 1-263 (from UniProt P04585 2-264) (domain or fragment) | 13% |
| 35S-IN fragment 1-272 (from UniProt P04585 2-273) (domain or fragment) | 13% |
| 35S-IN, full-length HIV-1 integrase, in vitro translated (from UniProt P04585) (enzyme) | 16% |
